Changes are numbered by the printed parent chain.
B1: G1: single-mutation soybean EPSPS mutant, SEQ ID NO: 20, only mutation K98(85)T (protein)
chain: MAAAEKPSTAPEIVLEPIKDISGTITLPGSKSLSNRILLLAALSEGTTVVDNLLYSEDIHYMLGALRTLGLRVEDDQTTKQAIVEGCGGLFPTIKESTDEINLFLGNAGTAMRPLTAAVVAAGGNASYVLDGVPRMRERPIGDLVAGLKQLGADVDCFLGTNCPPVRVNGKGGLPGGKVKLSGSVSSQYLTALLMAAPLALGDVEIEIVDKLISVPYVEMTLKLMERFGVSVEHSGDWDKFLVHGGQKYKSPGNAFVEGDASSASYFLAGAAVTGGTITVNGCGTSSLQGDVKFAEVLEKMGAKVTWSENSVTVTGPPQDSSGQKVLQGIDVNMNKMPDVAMTLAVVALFANGQTTIRDVASWRVKETERMIAICTELRKLGATVEEGPDYCVITPPEKLNVTAIDTYDDHRMAMAFSLAACGDVPVTIKDPGCTRKTFPDYFEVLERFTRH
modifications: Glycine max EPSPS mutant with mutation K98(85)T
B2: G2: single-mutation soybean EPSPS mutant, SEQ ID NO: 22, only mutation P114(101)S but no K98(85)T (protein)
chain: B1 chain with T98K, P114S
modifications: Glycine max EPSPS mutant with mutation P114(101)S
B3: G3: soybean EPSPS mutant, SEQ ID NO: 24, two mutations K98(85)T and P114(101)S (protein)
chain: B1 chain with P114S
modifications: Glycine max EPSPS mutant with mutations K98(85)T and P114(101)S

Assays:
[1] = tested on: double knockout E. coli; assay: growth of E. coli transformed by genes encoding soybean EPSPS (wild type and mutants) in culture media containing different glyphosate concentrations (Example 7, FIG. 3); format: cell-based
[2] = tested on: transgenic rice seedlings; assay: glyphosate resistance of the EPSPS mutant in transgenic rice plants sprayed with glyphosate (Example 8, Table 1); format: in vivo, rice (Nipponbare); conditions: for glyphosate resistance / survival of transformed rice seedlings (in words): 2× glyphosate dosage; for glyphosate resistance of transformed rice seedlings (in words): glyphosate sprayed at the 1× dosage
Source text: A method for detecting the glyphosate resistance of the G1 soybean EPSPS mutant (SEQ ID NO: 20), G2 soybean EPSPS mutant (SEQ ID NO: 22) and G3 soybean EPSPS mutant (SEQ ID NO: 24) provided in Example 7, the R1 rice EPSPS mutant (SEQ ID NO: 4) provided in Example 5, and the Z1 maize EPSPS mutant (SEQ ID NO: 12) provided in Example 6 in the transgenic rice is as follows:
The plasmids (containing the EPSPS mutant gene) of the monoclonal resistant bacteria of pADV5-EPSPS in Examples 1-7 were extracted by a conventional method, followed by double enzyme digestion by Pac1 and BstEII, the small fragments were collected, and then the small fragments were ligated, using T4 DNA ligase, to the pGVP1 vectors that had undergone the same double enzyme digestion, to obtain a pGVP1-EPSPS vector having a structure as shown in FIG. 8.
In the present example, the glyphosate resistance of the EPSPS mutant in transgenic rice plants were verified. An experiment method is as follows:
The transgenic rice seedlings transplanted were uniformly arranged in a same experiment area (preventing leaves from overlapping). The areas occupied by the experiment groups and the control group were calculated, and according to the areas, glyphosate was sprayed at a 1× dosage of 1060 g/hectare (0.106 g/m^2). 2× dosage was 2120 g/hectare, 5× dosage was 5300 g/hectare, and 20× dosage was 21200 g/hectare.
Commercially available Roundup® 41% ammonium glyphosate was used. Roundup® ammonium glyphosate with corresponding volumes was taken according to the above sprayed concentrations, then diluted with 20 times of volume of water, and then uniformly sprayed on the plants in the experiment groups and the control group. After leaf surfaces were dry, the plants were moved into greenhouse or outdoor to cultivate.
After the glyphosate was sprayed at the 1× dosage, growth states of the plants in each group were observed and recorded on a 10th day, and glyphosate was sprayed to the survived plants at the 2× dosage. The growth states of the plants in each group were observed and recorded 10 days later, and glyphosate was sprayed to the survived plants at the 5× dosage. The growth states of the plants in each group were observed and recorded 10 days later, and glyphosate was sprayed to the survived plants at the 20× dosage. The growth states of the plants in each group were observed and recorded 10 days later, and results are shown in Table 1, wherein corresponding numbers of plants denoted by −, +, ++ and +++ are listed, and “%++&+++” is percentage of plant having medium and high glyphosate resistance to the total number of plants observed.

[3] = 1X dosage (1060 g/hectare glyphosate), recorded on 10th day
[4] = 2X dosage (2120 g/hectare) sprayed to plants surviving 1X, recorded 10 days later
[5] = 5X dosage (5300 g/hectare) sprayed to plants surviving 2X, recorded 10 days later
[6] = 20X dosage (21200 g/hectare) sprayed to plants surviving 5X, recorded 10 days later
[7] = culture media containing 20 mM glyphosate

Molecule | % ++&+++ (percentage of plant having medium and high glyphosate resistance to the total number of plants observed) [2, 3] [%] | number of plants with resistance + (low glyphosate resistance) [2, 3] | number of plants with resistance ++ (medium glyphosate resistance) [2, 3] | number of plants with resistance +++ (high glyphosate resistance) [2, 3] | number of plants with resistance − (no glyphosate resistance) [2, 3] | % ++&+++ (percentage of plant having medium and high glyphosate resistance to the total number of plants observed) [2, 4] [%] | number of plants with resistance + (low glyphosate resistance) [2, 4] | number of plants with resistance ++ (medium glyphosate resistance) [2, 4] | number of plants with resistance +++ (high glyphosate resistance) [2, 4] | number of plants with resistance − (no glyphosate resistance) [2, 4] | % ++&+++ (percentage of plant having medium and high glyphosate resistance to the total number of plants observed) [2, 5] [%] | number of plants with resistance + (low glyphosate resistance) [2, 5] | number of plants with resistance ++ (medium glyphosate resistance) [2, 5] | number of plants with resistance +++ (high glyphosate resistance) [2, 5] | number of plants with resistance − (no glyphosate resistance) [2, 5] | % ++&+++ (percentage of plant having medium and high glyphosate resistance to the total number of plants observed) [2, 6] [%] | number of plants with resistance + (low glyphosate resistance) [2, 6] | number of plants with resistance ++ (medium glyphosate resistance) [2, 6] | number of plants with resistance +++ (high glyphosate resistance) [2, 6] | number of plants with resistance − (no glyphosate resistance) [2, 6] | other results
B1 | 5.4 | 6 | 2 | 0 | 29 | 0.0 | 4 | 0 | 0 | 33 | 0.0 | 0 | 0 | 0 | 37 | 0.0 | 0 | 0 | 0 | 37 | growth of transformed E. coli ([1]; culture media containing 1 mM glyphosate): obviously superior to the control group (G0); glyphosate resistance / survival of transformed rice seedlings (in words) [2]: some of the rice seedlings transformed by G1 still survived; glyphosate resistance of transformed rice seedlings (in words) [2]: obviously superior to that of G0
B2 | 47.1 | 6 | 5 | 3 | 3 | 0.0 | 0 | 0 | 0 | 17 | 0.0 | 0 | 0 | 0 | 17 | 0.0 | 0 | 0 | 0 | 17 | growth of transformed E. coli [1, 7]: could grow; glyphosate resistance / survival of transformed rice seedlings (in words) [2]: all rice seedlings containing the soybean EPSPS mutant G2 died; glyphosate resistance of transformed rice seedlings (in words) [2]: certain resistance to glyphosate
B3 | 45.2 | 1 | 9 | 5 | 16 | 19.4 | 5 | 6 | 0 | 20 | 0.0 | 10 | 0 | 0 | 21 | 0.0 | 3 | 0 | 0 | 28 | growth of transformed E. coli [1, 7]: superior to that of Experiment Group 2 (G2); glyphosate resistance of transformed rice seedlings (in words) [2]: certain resistance to glyphosate

— patent US11591580B2, “K85 mutation-containing plant EPSPS mutant, and encoding gene and application thereof” (GEVOTO LLC, priority 2017, dated 2023)
